Reference: patent US20220177567A1 (WASHINGTON UNIVERSITY, published 2022)

Tests used:
[1] = biological target: T1, human FLAG-tagged IL12Rβ1 expressed on EL-4 cells (human, UniProt P42701 24-662); experiment: flow cytometry, hybridoma supernatant followed by anti-mouse IgG PE
T1 construct: whole, on cells; EL-4 cell line transduced with a construct encoding human FLAG-tagged IL12Rβ1; also called EL-4-human IL-12Rβ1 cells; human IL12Rβ1; not shown: FLAG tag
Text: EL-4-human IL-12Rβ1 cell line: The EL-4 cell line was transduced with a construct encoding the human FLAG-tagged IL12Rβ1 Flow cytometry: EL-4-human IL-12Rβ1 cells were stained with supernatants from different hybridoma clones followed by anti-mouse IgG Pe. Staining was compared with that obtained with anti-FLAG Tag followed by anti-mouse IgG Pe. Hybridoma clones staining the same percentage of cells stained by anti-FLAG Tag were selected and further tested in primary cells (FIG. 2).

[2] = biological target: T2, human IL12Rβ1 (native, on human primary cells) (human, UniProt P42701 24-662); experiment: summary statement; no affinity method or value given
T2 construct: whole, on cells; Endogenous receptor on human tonsil ILC3 and peripheral blood lymphocytes; also called CD212; interleukin 12 receptor subunit beta 1

binding result [1]: binds
binding result [2]: binds
B1: 1G6 anti-IL12Rβ1 monoclonal antibody (antibody, V domains shown)
VH: RVQLQQSGAELAKPGASVRLSCMASGYTFTSYWMHWVKQRPGQGLEWIGYIDPNNGYTKYSQKFKDKATLTADKSSSTANMRLSSLTYEDSAVYYCVRGGEIYYFDYWGQGTTLTVSS
VL: DIQMTQSPSSLSASLGGKVTITCKASQDIYKYIAWYQHKPGKGPRLLIHYTSTLQPGIPSRFSGSGSGRDYSFSISDLEPEDIATYYCLQYDNILWTFGGGTKLEIKR
notes: Hybridoma monoclonal antibody, detected with anti-mouse IgG PE; Tested as hybridoma supernatant and also in biotinylated form; also called IG6; mab (1 G6)
